The record followed here is patent US20090068679A1.

Test [1] has as its target P/GF/sFlt-1 complex (gP/GF) (human) (UniProt P49763). Nature of the test: sandwich ELISA: mAb coated 3 ug/ml; PlGF 6.25 + Flt-1/Fc 400 (ng/ml) pre-incubated; anti-VEGF R1-POD. In general terms: An ELISA detects its analyte on a solid surface through an enzyme-linked reagent.
Test [2] shares this target. Nature of the test: ELISA: PlGF 1 ug/ml on plate-captured Flt-1/Fc 1 ug/ml; mAb 0.1 ug/ml; anti-mouse IgG-POD.
Test [3] shares this target. Nature of the test: sandwich ELISA: mAb coated 3 ug/ml; PlGF 3.13 + Flt-1/Fc 400 (ng/ml) pre-incubated; anti-VEGF R1-POD.
Test [4] shares this target. The test can be described thus: sandwich ELISA: mAb coated 3 ug/ml; PlGF 0.78 + Flt-1/Fc 400 (ng/ml) pre-incubated; anti-VEGF R1-POD.
In test [5] the target is recombinant human PlGF (R&D Systems, Catalog No. 264-PG/CF) (human) (UniProt P49763). Nature of the test: sandwich ELISA: mAb coated 3 ug/ml; PlGF 0.78 ng/ml; anti-PlGF-POD.
The target is the same in test [6]. Nature of the test: sandwich ELISA: mAb coated 3 ug/ml; PlGF 6.25 ng/ml; anti-PlGF-POD.
The target is the same in test [7]. The test can be described thus: sandwich ELISA: mAb coated 3 ug/ml; PlGF 12.5 ng/ml; anti-PlGF-POD.
Test [8] shares this target. The test can be described thus: sandwich ELISA: mAb 0.1 ug/ml on anti-mouse IgG plate, PlGF 0.1 ug/ml, anti-PlGF-POD.
Test [9] has as its target P/GF/sFlt-1 complex (gP/GF) (human) (UniProt P49763). Nature of the test: sandwich ELISA: mAb coated 3 ug/ml; PlGF 0.39 + Flt-1/Fc 400 (ng/ml) pre-incubated; anti-VEGF R1-POD.
The target of test [10] is recombinant human PlGF (R&D Systems, Catalog No. 264-PG/CF) (human) (UniProt P49763). The test can be described thus: sandwich ELISA: mAb coated 3 ug/ml; PlGF 50 ng/ml; anti-PlGF-POD.
Test [11] deals with P/GF/sFlt-1 complex (gP/GF) (human) (UniProt P49763). The test can be described thus: sandwich ELISA: mAb coated 3 ug/ml; PlGF 25 + Flt-1/Fc 400 (ng/ml) pre-incubated; anti-VEGF R1-POD.
Test [12] has the same target. Nature of the test: sandwich ELISA: mAb coated 3 ug/ml; PlGF 12.5 + Flt-1/Fc 400 (ng/ml) pre-incubated; anti-VEGF R1-POD.
The target is the same in test [13]. The test can be described thus: ELISA: PlGF 1 ug/ml on plate-captured Flt-1/Fc 1 ug/ml; mAb 1.0 ug/ml; anti-mouse IgG-POD.
The target in test [14] is recombinant human PlGF (R&D Systems, Catalog No. 264-PG/CF) (human) (UniProt P49763). Nature of the test: sandwich ELISA: mAb coated 3 ug/ml; PlGF 3.13 ng/ml; anti-PlGF-POD.
The target is the same in test [15]. The test can be described thus: sandwich ELISA: mAb coated 3 ug/ml; PlGF 25 ng/ml; anti-PlGF-POD.
Test [16] has the same target. Nature of the test: sandwich ELISA: mAb 1.0 ug/ml on anti-mouse IgG plate, PlGF 0.1 ug/ml, anti-PlGF-POD.
In test [17] the target is P/GF/sFlt-1 complex (gP/GF) (human) (UniProt P49763). The test can be described thus: sandwich ELISA: mAb coated 3 ug/ml; PlGF 1.56 + Flt-1/Fc 400 (ng/ml) pre-incubated; anti-VEGF R1-POD.
The target of test [18] is recombinant human PlGF (R&D Systems, Catalog No. 264-PG/CF) (human) (UniProt P49763). The test can be described thus: sandwich ELISA: mAb coated 3 ug/ml; PlGF 1.56 ng/ml; anti-PlGF-POD.

Consider antibody MAB264 from R&D Systems, for which the Extinction at 450 nm in test [1] came to 0.883; in test [2], 0.217; in [3] it was 0.529; in test [4], 0.146; in [5], 0.05; in [6] it was 0.468. Moreover, the Extinction at 450 nm in test [7] is 0.885; in test [8] it was 1.9; in [9], 0.094; in [10] it was 2.5; in test [11], 2.19; in [12], 1.61. The Extinction at 450 nm was determined as 0.691 in [13]; 0.232 in [14]; 1.47 in [15]; 2.5 in [16]; 0.272 in test [17]; 0.081 in test [18].
